Paper PMC7954438

Molecular target: Sushi domain of IL15Rα (aa1-66) fused to the CH2-CH3 of human IgG1 Fc
Experiment: SEC

Sushi domain of IL15Rα (aa1-66) fused to the CH2-CH3 of human IgG1 Fc, sequence (Q13261 1-66): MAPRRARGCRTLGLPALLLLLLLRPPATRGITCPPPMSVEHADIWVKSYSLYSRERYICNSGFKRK

stoichiometry N: 2
Substance: Sushi domain of IL15Rα (aa1-66) fused to the CH2-CH3 of human IgG1 Fc (Fc fusion)
